T1: Rabbit PD-L1 (rabbit, UniProt G1SUI3 19-236)
T1 construct: also called PD-L1 in rabbits
T1 sequence: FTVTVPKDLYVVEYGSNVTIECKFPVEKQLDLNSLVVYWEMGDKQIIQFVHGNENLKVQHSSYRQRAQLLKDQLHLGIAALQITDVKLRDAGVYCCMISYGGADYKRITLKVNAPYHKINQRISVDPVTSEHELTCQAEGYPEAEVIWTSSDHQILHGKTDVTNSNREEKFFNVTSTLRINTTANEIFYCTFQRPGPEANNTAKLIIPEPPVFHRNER

T2: Human TGF-β2 (human, UniProt P61812 303-414)
T2 sequence (looked up): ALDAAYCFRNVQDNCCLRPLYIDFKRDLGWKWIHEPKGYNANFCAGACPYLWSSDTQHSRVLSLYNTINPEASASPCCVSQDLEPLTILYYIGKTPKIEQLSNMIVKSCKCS

T3: Mouse/Rat TGF-β2 (mouse/rat, UniProt P27090 303-414)
T3 sequence (looked up): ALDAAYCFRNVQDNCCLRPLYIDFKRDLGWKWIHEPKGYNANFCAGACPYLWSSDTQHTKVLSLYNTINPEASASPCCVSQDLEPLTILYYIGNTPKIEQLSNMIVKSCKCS

T4: human TGF-β3 (human, UniProt P10600 301-412)
T4 construct: also called TGF-β3 (R&D, 8420-B3-025)
T4 sequence (looked up): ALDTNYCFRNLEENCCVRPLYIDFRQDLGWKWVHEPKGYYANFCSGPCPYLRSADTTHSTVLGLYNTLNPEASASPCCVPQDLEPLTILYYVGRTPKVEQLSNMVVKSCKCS


What was measured:
Human LAP = target: T5, Human LAP (human, UniProt P01137 30-278); assay: SPR (BIAcore), HB0028 captured on Protein A chip, TGF-β protein as analyte
T5 construct: domain: LAP; also called precursor of TGF-β1 (Human LAP)
Protocol: (§1) Flow rate: 30 μl/min, binding: 120 s, dissociation: 600 s, analyzing the kinetic constants by Fit local using a 1:1 binding mode.

Mouse precursor TGF-β1 = target: T6, Mouse precursor TGF-β1 (mouse, UniProt P04202 30-390, limits assumed); assay: as above
T6 construct: Latent/precursor form as printed; also called Mouse Latent TGF-β1
Protocol: as §1

Rat PD-L1 = target: T7, Rat PD-L1 (rat, UniProt D4AE25 19-239); assay: SPR (BIAcore), HB0028 captured on anti-human IgG (Fc) chip, PD-L1 as analyte
T7 construct: also called PD-L1 in rats
Protocol: as §1

Rabbit PD-L1 = target: T1, Rabbit PD-L1; assay: as above
Protocol: as §1

Mouse PD-L1 = target: T8, Mouse PD-L1 (mouse, UniProt Q9EP73 19-238, limits assumed); assay: as above
T8 construct: also called PD-L1 in mice
Protocol: as §1

human TGF-β1 [1] = target: T9, human TGF-β1 (human, UniProt P01137 279-390); assay: ELISA, TGF-β1 coated at 0.5 µg/ml, HRP anti-human IgG detection, OD450
T9 construct: also called TGF-β1 (ACRO, TG1-H4212); free TGF-β protein
Protocol: (§2) After washing with PBST, into the plates was added HRP-labeled anti-human IgG secondary antibody (1:5000 dilution) at 100 μl/well, reacted at room temperature for 30 min, and then washed with PBST. After developing with TMB color development solution for 5 min, the reaction was terminated with sulfuric acid, and OD450 value was read by a microplate reader.

Mouse/Rat TGF-β1 = Mouse/Rat TGF-β1 (mouse/rat, UniProt P04202 279-390); assay: SPR (BIAcore), HB0028 captured on Protein A chip, TGF-β protein as analyte, 1:1 fit
Protocol: as §1

Human TGF-β2 = target: T2, Human TGF-β2; assay: as above
Protocol: as §1

Mouse/Rat TGF-β2 = target: T3, Mouse/Rat TGF-β2; assay: as above
Protocol: as §1

human TGF-β1 [2] = target: T9, human TGF-β1; assay: as above
Protocol: as §1

[3] = target: Human PD-L1 (BIAcore analyte) (human, UniProt Q9NZQ7 19-238, limits assumed); assay: SPR (BIAcore), HB0028 captured on anti-human IgG (Fc) chip, PD-L1 as analyte, 1:1 fit
Protocol: as §1

Monkey PD-L1 = target: T10, Monkey PD-L1 (monkey); assay: as above
T10 construct: also called PD-L1 in monkeys
Protocol: as §1

[4] = target: T11, human PD-L1 on CHO-K1 cells (human, UniProt Q9NZQ7 19-290); assay: flow cytometry on CHO-K1 cells overexpressing human PD-L1, PE anti-human IgG detection, median fluorescence intensity
T11 construct: whole, on cells; also called CHO-K1 cells overexpressing human PD-L1; CHO-K1-OS8-PD-L1-8D6 cells
Protocol: CHO-K1 cells overexpressing human PD-L1 were taken and resuspended to 1×10⁶/ml and added into a 96-well plate at 20 μl/well.

[5] = target: T11, human PD-L1 on CHO-K1 cells; assay: dual-target flow cytometry: sample pre-mixed with 3 µg/ml human TGF-β1, then CHO-K1 cells overexpressing human PD-L1, detection with PE anti-human TGF-β1 antibody (signal needs PD-L1 and TGF-β1 bound at once)
Protocol: After then, CHO-K1 cells overexpressing human PD-L1 were taken and resuspended to 1×10⁶/ml, added into a 96-well plate at 20 μl/well, and incubated for min after being mixed uniformly. The plate was washed twice by centrifugation with 1% BSA-PBS. Into each well was added 20 μl of PE fluorescence labeled anti-human TGF-β1 secondary antibody (1:100), incubated at room temperature for 15 min, washed three times by centrifugation, and then tested for the emission intensity at 580 nm by a flow cytometer Canto II (BD).

human TGF-β3 = target: T4, human TGF-β3; assay: ELISA, TGF-β3 coated at 0.5 µg/ml, HRP anti-human IgG detection, OD450
Protocol: as §2

T11 sequence (Q9NZQ7 19-290): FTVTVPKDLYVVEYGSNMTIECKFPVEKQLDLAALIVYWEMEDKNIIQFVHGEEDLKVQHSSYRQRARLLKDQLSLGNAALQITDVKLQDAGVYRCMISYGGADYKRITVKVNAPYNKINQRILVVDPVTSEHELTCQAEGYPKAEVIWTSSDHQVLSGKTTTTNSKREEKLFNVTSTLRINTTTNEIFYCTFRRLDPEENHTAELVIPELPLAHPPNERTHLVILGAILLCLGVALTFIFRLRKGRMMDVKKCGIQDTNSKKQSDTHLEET
T9 sequence (P01137 279-390 limits assumed): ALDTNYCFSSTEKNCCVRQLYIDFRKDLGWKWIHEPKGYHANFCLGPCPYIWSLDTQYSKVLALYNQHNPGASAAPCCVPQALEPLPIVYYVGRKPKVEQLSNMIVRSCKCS
Sequence of Human PD-L1 (BIAcore analyte) (Q9NZQ7 19-238 limits assumed): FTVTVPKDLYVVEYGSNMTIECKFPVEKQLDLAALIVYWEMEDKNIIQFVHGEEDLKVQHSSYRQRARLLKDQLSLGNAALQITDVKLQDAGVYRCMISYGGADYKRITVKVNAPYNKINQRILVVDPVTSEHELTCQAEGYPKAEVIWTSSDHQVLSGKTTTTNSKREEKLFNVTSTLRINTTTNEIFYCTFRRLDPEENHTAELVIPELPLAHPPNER
T6 sequence (P04202 30-390 limits assumed): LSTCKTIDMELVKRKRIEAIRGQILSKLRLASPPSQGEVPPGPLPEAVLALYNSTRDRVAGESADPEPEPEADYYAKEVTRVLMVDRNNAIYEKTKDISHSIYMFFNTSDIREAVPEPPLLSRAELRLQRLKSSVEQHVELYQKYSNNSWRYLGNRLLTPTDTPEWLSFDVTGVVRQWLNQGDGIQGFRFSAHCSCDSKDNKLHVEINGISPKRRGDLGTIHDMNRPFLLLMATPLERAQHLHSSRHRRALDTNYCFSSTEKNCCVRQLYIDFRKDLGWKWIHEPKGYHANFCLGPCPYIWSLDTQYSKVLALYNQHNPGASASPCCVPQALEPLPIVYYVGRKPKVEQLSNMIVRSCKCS
T8 sequence (Q9EP73 19-238 limits assumed): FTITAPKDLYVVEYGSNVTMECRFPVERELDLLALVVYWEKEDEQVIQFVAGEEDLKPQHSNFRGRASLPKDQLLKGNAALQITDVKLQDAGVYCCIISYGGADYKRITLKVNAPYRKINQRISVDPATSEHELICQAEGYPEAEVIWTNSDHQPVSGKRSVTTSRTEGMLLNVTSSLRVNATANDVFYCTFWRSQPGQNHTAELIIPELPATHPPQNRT
T5 sequence (P01137 30-278 limits assumed): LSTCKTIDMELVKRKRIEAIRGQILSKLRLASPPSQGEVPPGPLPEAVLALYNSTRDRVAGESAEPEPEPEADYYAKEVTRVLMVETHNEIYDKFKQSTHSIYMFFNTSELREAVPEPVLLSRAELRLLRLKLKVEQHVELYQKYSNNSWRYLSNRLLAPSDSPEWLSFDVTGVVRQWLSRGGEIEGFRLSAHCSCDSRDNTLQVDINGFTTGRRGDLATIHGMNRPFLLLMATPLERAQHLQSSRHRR
T7 sequence (D4AE25 entry or part of it limits assumed): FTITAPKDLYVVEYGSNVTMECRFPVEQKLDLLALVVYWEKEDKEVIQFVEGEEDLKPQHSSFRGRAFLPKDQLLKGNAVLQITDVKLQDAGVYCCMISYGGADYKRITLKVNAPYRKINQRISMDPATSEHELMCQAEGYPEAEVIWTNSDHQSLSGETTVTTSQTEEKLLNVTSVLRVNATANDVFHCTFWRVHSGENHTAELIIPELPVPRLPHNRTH
Sequence of Mouse/Rat TGF-β1 (P04202 279-390 limits assumed): as the sequence (P01137 279-390 limits assumed) above, with A75S counted along it

Row | binding result (Human LAP) | binding result (Mouse precursor TGF-β1) | binding result (Rat PD-L1) | binding result (Rabbit PD-L1) | binding result (Mouse PD-L1) | EC50 (human TGF-β1 [1]) | Kd (Mouse/Rat TGF-β1) | Kd (Human TGF-β2) | Kd (Mouse/Rat TGF-β2) | Kd (human TGF-β1 [2]) | Kd [3] | Kd (Monkey PD-L1) | EC50 [4] | EC50 [5] | EC50 (human TGF-β3) | Binder
1 | no binding | no binding | no binding | no binding | no binding | 0.347 nM | 0.00275 nM | 1.56 nM | 1.97 nM | 0.0114 nM | 2.45 nM | 5.87 nM | 3.77 nM | 4.22 nM | – | HB0028 (bispecific antibody, human IgG1, kappa, also called N-fusion PD-L1/TGF-β bispecific antibody; heavy chain 500054 + light chain 400085) heavy: not shown light: DVVMTQTPLSLSVTPGQPASISCKSSQSLANSYGNTYLSWYLHKPGQSPQLLIYGISNRFSGVPDRFSGSGSGTDFTLKISRVEAEDVGVYYCLQGTHQPPTFGQGTKLEIKRTVAAPSVFIFPPSDEQLKSGTASVVCLLNNFYPREAKVQWKVDNALQSGNSQESVTEQDSKDSTYSLSSTLTLSKADYEKHKVYACEVTHQGLSSPVTKSFNRGEC
2 | – | – | – | – | – | 0.955 nM | – | – | – | – | – | – | 1.85 nM | 1.61 nM | 1.51 nM | HB0029 (bispecific antibody, human IgG1, kappa, Heavy chain from N to C: VH of HB0023, wild-type human IgG1 constant region, GS linker, human TGF-βRII ECD 24-159; Same light chain as HB0028; also called C-fusion PD-L1/TGF-β bispecific antibody; heavy chain 500055 + light chain 400085) heavy: not shown light: DVVMTQTPLSLSVTPGQPASISCKSSQSLANSYGNTYLSWYLHKPGQSPQLLIYGISNRFSGVPDRFSGSGSGTDFTLKISRVEAEDVGVYYCLQGTHQPPTFGQGTKLEIKRTVAAPSVFIFPPSDEQLKSGTASVVCLLNNFYPREAKVQWKVDNALQSGNSQESVTEQDSKDSTYSLSSTLTLSKADYEKHKVYACEVTHQGLSSPVTKSFNRGEC
3 | – | – | – | – | – | 0.652 nM | – | – | – | – | – | – | – | – | – | TGFβRII (Fc fusion) TIPPHVQKSVNNDMIVTDNNGAVKFPQLCKFCDVRFSTCDNQKSCMSNCSITSICEKPQEVCVAVWRKNDENITLETVCHDPKLPYHDFILEDAASPKCIMKEKKKPGETFFMCSCSSDECNDNIIFSEEYNTSNPD

Source: patent publication US20240026004A1 (SHANGHAI HUAOTA BIOPHARMACEUTICAL, published 2024)
